Test results: US20200131230A1 (published 2020)
Positions of bridges follow the written chain, without caps; N, C: chain ends. Non-standard residues stand in square brackets, D forms with d. 2Nal = N[C@@H](Cc1ccc2ccccc2c1)C(=O)O; Nle = CCCC[C@H](N)C(=O)O; 4CF = not defined here; DCF = not defined here; HF = not defined here

B1: Compound 38 (peptide)
peptide: {CH2CO}-[2Nal]ISGRNW[Nle]KWVC-NH2
modifications: thioether N-12
SMILES: CCCC[C@@H]1NC(=O)[C@H](Cc2c[nH]c3ccccc23)NC(=O)[C@H](CC(N)=O)NC(=O)[C@H](CCCNC(=N)N)NC(=O)CNC(=O)[C@H](CO)NC(=O)[C@H]([C@@H](C)CC)NC(=O)[C@H](Cc2ccc3ccccc3c2)NC(=O)CSC[C@@H](C(N)=O)NC(=O)[C@H](C(C)C)NC(=O)[C@H](Cc2c[nH]c3ccccc23)NC(=O)[C@H](CCCCN)NC1=O
B2: Compound 33 (peptide)
peptide: {CH2CO}-[2Nal]WSGRNWVKWVC-NH2
modifications: thioether N-12
SMILES: CC(C)[C@@H]1NC(=O)[C@H](Cc2c[nH]c3ccccc23)NC(=O)[C@H](CCCCN)NC(=O)[C@H](C(C)C)NC(=O)[C@H](Cc2c[nH]c3ccccc23)NC(=O)[C@H](CC(N)=O)NC(=O)[C@H](CCCNC(=N)N)NC(=O)CNC(=O)[C@H](CO)NC(=O)[C@H](Cc2c[nH]c3ccccc23)NC(=O)[C@H](Cc2ccc3ccccc3c2)NC(=O)CSC[C@@H](C(N)=O)NC1=O
B3: Compound 26 (peptide)
peptide: {CH2CO}-FISGRNW[Nle]KWVC-NH2
modifications: thioether N-12
SMILES: CCCC[C@@H]1NC(=O)[C@H](Cc2c[nH]c3ccccc23)NC(=O)[C@H](CC(N)=O)NC(=O)[C@H](CCCNC(=N)N)NC(=O)CNC(=O)[C@H](CO)NC(=O)[C@H]([C@@H](C)CC)NC(=O)[C@H](Cc2ccccc2)NC(=O)CSC[C@@H](C(N)=O)NC(=O)[C@H](C(C)C)NC(=O)[C@H](Cc2c[nH]c3ccccc23)NC(=O)[C@H](CCCCN)NC1=O
B4: Compound 27 (peptide)
peptide: {CH2CO}-[2Nal]FSGRNWVKWVC-NH2
modifications: thioether N-12
SMILES: CC(C)[C@@H]1NC(=O)[C@H](Cc2c[nH]c3ccccc23)NC(=O)[C@H](CCCCN)NC(=O)[C@H](C(C)C)NC(=O)[C@H](Cc2c[nH]c3ccccc23)NC(=O)[C@H](CC(N)=O)NC(=O)[C@H](CCCNC(=N)N)NC(=O)CNC(=O)[C@H](CO)NC(=O)[C@H](Cc2ccccc2)NC(=O)[C@H](Cc2ccc3ccccc3c2)NC(=O)CSC[C@@H](C(N)=O)NC1=O
B5: Compound 29 (peptide)
peptide: {CH2CO}-[2Nal]ISGRNWVK[2Nal]VC-NH2
modifications: thioether N-12
SMILES: CC[C@H](C)[C@@H]1NC(=O)[C@H](Cc2ccc3ccccc3c2)NC(=O)CSC[C@@H](C(N)=O)NC(=O)[C@H](C(C)C)NC(=O)[C@H](Cc2ccc3ccccc3c2)NC(=O)[C@H](CCCCN)NC(=O)[C@H](C(C)C)NC(=O)[C@H](Cc2c[nH]c3ccccc23)NC(=O)[C@H](CC(N)=O)NC(=O)[C@H](CCCNC(=N)N)NC(=O)CNC(=O)[C@H](CO)NC1=O
B6: Compound 17 (peptide)
peptide: {CH2CO}-FITGKNWVKWVC-NH2
modifications: thioether N-12
SMILES: CC[C@H](C)[C@@H]1NC(=O)[C@H](Cc2ccccc2)NC(=O)CSC[C@@H](C(N)=O)NC(=O)[C@H](C(C)C)NC(=O)[C@H](Cc2c[nH]c3ccccc23)NC(=O)[C@H](CCCCN)NC(=O)[C@H](C(C)C)NC(=O)[C@H](Cc2c[nH]c3ccccc23)NC(=O)[C@H](CC(N)=O)NC(=O)[C@H](CCCCN)NC(=O)CNC(=O)[C@H]([C@@H](C)O)NC1=O
B7: Compound 23 (peptide)
peptide: {CH2CO}-WISGRTWVKWVC-NH2
modifications: thioether N-12
SMILES: CC[C@H](C)[C@@H]1NC(=O)[C@H](Cc2c[nH]c3ccccc23)NC(=O)CSC[C@@H](C(N)=O)NC(=O)[C@H](C(C)C)NC(=O)[C@H](Cc2c[nH]c3ccccc23)NC(=O)[C@H](CCCCN)NC(=O)[C@H](C(C)C)NC(=O)[C@H](Cc2c[nH]c3ccccc23)NC(=O)[C@H]([C@@H](C)O)NC(=O)[C@H](CCCNC(=N)N)NC(=O)CNC(=O)[C@H](CO)NC1=O
B8: Compound 19 (peptide)
peptide: {CH2CO}-FISGKNWMKWVC-NH2
modifications: thioether N-12
SMILES: CC[C@H](C)[C@@H]1NC(=O)[C@H](Cc2ccccc2)NC(=O)CSC[C@@H](C(N)=O)NC(=O)[C@H](C(C)C)NC(=O)[C@H](Cc2c[nH]c3ccccc23)NC(=O)[C@H](CCCCN)NC(=O)[C@H](CCSC)NC(=O)[C@H](Cc2c[nH]c3ccccc23)NC(=O)[C@H](CC(N)=O)NC(=O)[C@H](CCCCN)NC(=O)CNC(=O)[C@H](CO)NC1=O
B9: Compound 21 (peptide)
peptide: {CH2CO}-FISGKNWMRWVC-NH2
modifications: thioether N-12
SMILES: CC[C@H](C)[C@@H]1NC(=O)[C@H](Cc2ccccc2)NC(=O)CSC[C@@H](C(N)=O)NC(=O)[C@H](C(C)C)NC(=O)[C@H](Cc2c[nH]c3ccccc23)NC(=O)[C@H](CCCNC(=N)N)NC(=O)[C@H](CCSC)NC(=O)[C@H](Cc2c[nH]c3ccccc23)NC(=O)[C@H](CC(N)=O)NC(=O)[C@H](CCCCN)NC(=O)CNC(=O)[C@H](CO)NC1=O
B10: Compound 16 (peptide)
peptide: {CH2CO}-WISGKNWVKWVC-NH2
modifications: thioether N-12
SMILES: CC[C@H](C)[C@@H]1NC(=O)[C@H](Cc2c[nH]c3ccccc23)NC(=O)CSC[C@@H](C(N)=O)NC(=O)[C@H](C(C)C)NC(=O)[C@H](Cc2c[nH]c3ccccc23)NC(=O)[C@H](CCCCN)NC(=O)[C@H](C(C)C)NC(=O)[C@H](Cc2c[nH]c3ccccc23)NC(=O)[C@H](CC(N)=O)NC(=O)[C@H](CCCCN)NC(=O)CNC(=O)[C@H](CO)NC1=O
B11: Compound 20 (peptide)
peptide: {CH2CO}-WISGKTWVKWVC-NH2
modifications: thioether N-12
SMILES: CC[C@H](C)[C@@H]1NC(=O)[C@H](Cc2c[nH]c3ccccc23)NC(=O)CSC[C@@H](C(N)=O)NC(=O)[C@H](C(C)C)NC(=O)[C@H](Cc2c[nH]c3ccccc23)NC(=O)[C@H](CCCCN)NC(=O)[C@H](C(C)C)NC(=O)[C@H](Cc2c[nH]c3ccccc23)NC(=O)[C@H]([C@@H](C)O)NC(=O)[C@H](CCCCN)NC(=O)CNC(=O)[C@H](CO)NC1=O
B12: Compound 8 (peptide)
peptide: {CH2CO}-FRSGRNWVRWVC-NH2
modifications: thioether N-12
SMILES: CC(C)[C@@H]1NC(=O)[C@H](Cc2c[nH]c3ccccc23)NC(=O)[C@H](CCCNC(=N)N)NC(=O)[C@H](C(C)C)NC(=O)[C@H](Cc2c[nH]c3ccccc23)NC(=O)[C@H](CC(N)=O)NC(=O)[C@H](CCCNC(=N)N)NC(=O)CNC(=O)[C@H](CO)NC(=O)[C@H](CCCNC(=N)N)NC(=O)[C@H](Cc2ccccc2)NC(=O)CSC[C@@H](C(N)=O)NC1=O
B13: Compound 22 (peptide)
peptide: {CH2CO}-WISGKTWVRWVC-NH2
modifications: thioether N-12
SMILES: CC[C@H](C)[C@@H]1NC(=O)[C@H](Cc2c[nH]c3ccccc23)NC(=O)CSC[C@@H](C(N)=O)NC(=O)[C@H](C(C)C)NC(=O)[C@H](Cc2c[nH]c3ccccc23)NC(=O)[C@H](CCCNC(=N)N)NC(=O)[C@H](C(C)C)NC(=O)[C@H](Cc2c[nH]c3ccccc23)NC(=O)[C@H]([C@@H](C)O)NC(=O)[C@H](CCCCN)NC(=O)CNC(=O)[C@H](CO)NC1=O
B14: Compound 18 (peptide)
peptide: {CH2CO}-FISGKTWVKWVC-NH2
modifications: thioether N-12
SMILES: CC[C@H](C)[C@@H]1NC(=O)[C@H](Cc2ccccc2)NC(=O)CSC[C@@H](C(N)=O)NC(=O)[C@H](C(C)C)NC(=O)[C@H](Cc2c[nH]c3ccccc23)NC(=O)[C@H](CCCCN)NC(=O)[C@H](C(C)C)NC(=O)[C@H](Cc2c[nH]c3ccccc23)NC(=O)[C@H]([C@@H](C)O)NC(=O)[C@H](CCCCN)NC(=O)CNC(=O)[C@H](CO)NC1=O

What follows are binders tested against T1, Thrombospondin human platelet (Calbiochem, 605225) (human, UniProt P07996 19-1170) (assay: cell-based or functional assay).
T1 sequence (P07996 19-1170 limits assumed): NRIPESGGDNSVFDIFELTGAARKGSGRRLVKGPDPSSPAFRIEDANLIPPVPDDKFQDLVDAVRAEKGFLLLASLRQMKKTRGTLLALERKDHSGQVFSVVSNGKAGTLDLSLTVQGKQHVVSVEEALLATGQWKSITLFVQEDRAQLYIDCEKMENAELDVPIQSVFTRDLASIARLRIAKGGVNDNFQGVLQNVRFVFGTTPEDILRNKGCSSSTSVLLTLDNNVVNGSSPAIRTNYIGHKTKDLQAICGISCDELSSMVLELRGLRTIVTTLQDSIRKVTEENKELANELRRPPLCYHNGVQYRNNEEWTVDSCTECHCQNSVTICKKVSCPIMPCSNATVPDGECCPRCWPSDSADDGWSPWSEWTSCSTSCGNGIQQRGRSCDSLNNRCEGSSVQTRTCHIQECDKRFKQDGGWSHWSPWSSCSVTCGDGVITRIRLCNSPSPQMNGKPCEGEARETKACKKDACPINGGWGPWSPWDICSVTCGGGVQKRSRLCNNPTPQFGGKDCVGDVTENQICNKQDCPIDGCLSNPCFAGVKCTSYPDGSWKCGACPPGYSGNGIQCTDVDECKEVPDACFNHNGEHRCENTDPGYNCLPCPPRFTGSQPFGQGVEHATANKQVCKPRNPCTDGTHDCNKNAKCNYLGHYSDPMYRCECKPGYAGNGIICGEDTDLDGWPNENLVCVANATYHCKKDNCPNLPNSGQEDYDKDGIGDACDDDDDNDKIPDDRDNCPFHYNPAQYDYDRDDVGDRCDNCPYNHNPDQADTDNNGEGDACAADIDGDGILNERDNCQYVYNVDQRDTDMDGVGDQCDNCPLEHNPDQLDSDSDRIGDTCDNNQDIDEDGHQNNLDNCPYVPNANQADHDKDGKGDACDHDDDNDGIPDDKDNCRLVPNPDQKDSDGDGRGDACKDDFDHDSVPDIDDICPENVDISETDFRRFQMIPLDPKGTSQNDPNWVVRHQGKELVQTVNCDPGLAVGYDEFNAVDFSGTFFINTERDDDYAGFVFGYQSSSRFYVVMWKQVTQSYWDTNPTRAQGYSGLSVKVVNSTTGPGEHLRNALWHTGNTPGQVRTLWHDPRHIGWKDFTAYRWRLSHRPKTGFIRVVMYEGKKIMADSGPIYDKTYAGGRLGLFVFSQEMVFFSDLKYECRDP

Binder	Cell adhesion IC50 [nM]
{CH2CO}-[2Nal]ISGRNWVKW[HF]C-NH2 (thioether N-12; reading uncertain) [Compound 37]	19.6
{CH2CO}-[2Nal]ISGRNWVK[6CW]VC-NH2 (thioether N-12) [Compound 36]	17.2
{CH2CO}-[2Nal][4CF]SGRNWVKWVC-NH2 (thioether N-12; reading uncertain) [Compound 31]	32.5
{CH2CO}-[2Nal]ISGRN[6CW]VKWVC-NH2 (thioether N-12) [Compound 35]	26
{CH2CO}-[DCF][2Nal]SGRNWVKWVC-NH2 (thioether N-12; reading uncertain) [Compound 34]	28.1
B1	9.2
{CH2CO}-[2Nal][HF]SGRNWVKWVC-NH2 (thioether N-12; reading uncertain) [Compound 32]	25.9
B2	20.7
B3	7
B4	32.8
B5	17.6

Target: T1, Thrombospondin human platelet …
Experiment: cell-based or functional assay
Remark: another data set of the same source

Binder	Cell adhesion IC50 [nM]
B6	17.7
B7	15.6
B8	14.1
B9	21.3
B10	21
{CH2CO}-[4CF]ISGRNWVKWVC-NH2 (thioether N-12; reading uncertain) [Compound 25]	7.9
B11	13.1
B12	33.4
B13	20.3
B14	13
